Source: patent publication US20230174651A1

Tests used:
[1] = target: CD79b CAR with CD8α hinge as the spacer; assay: flow cytometry, Jurkat cells transduced with construct CAR-1, fluorescently labelled second antibody; gate set on untransduced (UTD) cells
Target sequence (P01732 138-182): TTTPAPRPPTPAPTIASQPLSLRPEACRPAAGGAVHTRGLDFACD

[2] = target: CD79b CAR with CD8α hinge as the spacer; assay: flow cytometry, Jurkat cells transduced with construct CAR-2, fluorescently labelled second antibody; gate set on untransduced (UTD) cells
[3] = target: CD79b CAR with CD8α hinge as the spacer; assay: flow cytometry, Jurkat cells transduced with construct CAR-3, fluorescently labelled second antibody; gate set on untransduced (UTD) cells
[4] = target: CD79b CAR with CD8α hinge as the spacer; assay: flow cytometry, Jurkat cells transduced with construct CAR-4, fluorescently labelled second antibody; gate set on untransduced (UTD) cells
[5] = target: CD79b CAR with CD8α hinge as the spacer; assay: flow cytometry, Jurkat cells transduced with construct CAR-5, fluorescently labelled second antibody; gate set on untransduced (UTD) cells
[6] = target: CD79b CAR with CD8α hinge as the spacer; assay: flow cytometry, Jurkat cells transduced with construct CAR-6, fluorescently labelled second antibody; gate set on untransduced (UTD) cells

% positive (CAR+ Jurkat cells) [1]: 13%
% positive (CAR+ Jurkat cells) [2]: 41.7%
% positive (CAR+ Jurkat cells) [3]: 15.9%
% positive (CAR+ Jurkat cells) [4]: 54.1%
% positive (CAR+ Jurkat cells) [5]: 84.5%
% positive (CAR+ Jurkat cells) [6]: 84%
B1: mouse FC version of CD8B575 (purified from mouse hybridoma clone) (antibody, V domains shown)
VH: QVQLQQSGGGLVQPGGSLKLSCAASGFTFSNYYMSWARQTPEKRLEWVAYISNDGDATYYPDSVKGRFTISRDNAKNTLYLQMSSLKSEDTAMYYCTREDYYSDYWFASWGQGTTVTVSS
VL: DIVMTQSQKFMSTTIEDRVSITCKASQNVGTAVAWYQQKPGQSPKLLIYSTSNRYTGVPDRFTGSGSGTDFTLTISNIQSEDLADYFCQQYSSYPLTFGGGTKLEIK
